Key:
[1] = tested on: Hep G2; test: MTT Cell Proliferation Assay, Hep G2; assay type: cell-based, human; settings: 120 hours of exposure
Excerpt: (§1) This Example describes characterization of the cytotoxic activity of herein described anti-BKB2R monoclonal antibodies against a panel of cancer cell lines. BxPC-3 is a human adenocarcinoma cell line originally isolated from the pancreas (pancreatic cancer) (ATCC # CRL-1687; Tan et al., Cancer Invest. 4: 15-23, 1986. PubMed: 3754176). MV-4-11 is a human biphenotypic B myelomonocytic leukemia (mixed-lineage leukemia, MLL-AF4) cell line originally isolated from the peripheral blood (ATCC # CRL-959; Lange et al., Blood 70: 192-199, 1987. PubMed: 3496132). Hep G2 is a human hepatocellular carcinoma cell line isolated from the liver (liver cancer) (ATCC # HB-8065; Aden et al., Nature 282: 615-616, 1979. PubMed: 233137). RS4;11 is a human acute lymphoblastic leukemia (mixed-lineage leukemia, MLL-AF4) cell line isolated from the bone marrow (ATTC # CRL-1873) Stong et al., Blood 65: 21-31, 1985. PubMed: 3917311). HT-29 is a human colorectal adenocarcinoma (ATTC # HTB-38) cell line isolated from the colon (colon cancer). Fogh et al., J. Natl. Cancer Inst. 58: 209-214, 1977. PubMed: 833871). NUGC-4 is a human stomach carcinoma isolated from the stomach paragastiric lymph node (JCRB # JCRB0834; Akiyama et al., Jpn. J. Surg., 18: 438-446, 1988). […]
(§2) The anti-proliferative activity of test compounds against the indicated cell lines was evaluated in vitro using the ATCC's MTT Cell Proliferation Assay (Catalog No. 30-1010K). After the 120 hour incubation with drug (e.g., anti-BKB2R mAb or cisplatin), cell proliferation was measured by addition of MTT reagent to each well and incubation for an additional 4 hrs. […] Optical absorbance (570 nm) of the test wells was measured and then quantitated relative to control wells that received no drug. Results were expressed as percent inhibition versus compound concentration and graphed, as shown in FIGS. 19-25, for cell lines BxPC-3, MV-4;11, HepG2, RS-4;11, HT-29, NUGC-4, and PC-3, respectively.

[2] = tested on: ZDF fa/fa rats; test: 21-day ZDF fa/fa study: oral glucose tolerance test (blood glucose, plasma insulin); assay type: in vivo, rat; settings: day 21
Procedure: Animals. Male ZDF fa/fa rats were obtained from CRL (Kingston, N.Y.). Upon arrival, rats were seven weeks of age. The rats were housed individually per cage in a room with a photo cycle of 12 hours of light and 12 hours of dark and an ambient temperature of 70-72° F. and fed on regular rodent diet and water ad libitum. At the age of eleven weeks, rats were divided into six groups (Table 5) of eight rats per group based on fasting blood glucose levels. A sub-group of four rats per group was maintained in parallel to the main groups and was dosed similarly for twenty-one days for a hyperinsulinemic-euglycemic clamp study. […]
An oral glucose tolerance test (OGTT) was performed on Day 0, 7, 14 and 21 for each group of the study. Plasma samples were collected at each time point during OGTT to also measure insulin levels. Body weight, food and water intake were measured twice a week. Blood pressure and heart rates were monitored on Day 0, 7, 14 and 21 using a non-invasive tail cuff method (with five readings per rat taken and then averaged). Fasting serum samples were collected on Day 0, 7, 14 and 21 before OGTT for determination of triglyceride and total cholesterol level. Urine samples were collected on Day 7 and 14 for the determination of glycosuria. Glycated (Glycosylated) hemoglobin (HbA1c) was measured at the end of the study. Assay kits for these studies were as presented in Table 6, and were used according to the suppliers' instructions.
OGTTs were performed on Day 0, 7, 14 and Day 21. Rats were fasted overnight and fasted blood glucose levels were measured (t=0 min), and then each rat was given a single 1.5 ml dose of glucose solution (2 g/kg body weight of D-(+)-glucose (G7528, Sigma) solubilized in deionized water) administered by oral gavage. […] At each time point of an OGGT approximately 50-60 μl of blood were collected and processed for plasma to measure insulin levels.
Plasma Collection. On days 0, 7, 14 and 21 during an OGTT test, blood samples were collected from the rats at each time point (0, 15, 30, 60, 90 and 120 minutes) into tubes containing lithium heparin (BD Biosciences, USA) by tail nip and kept on ice. The samples were then centrifuged at 4° C. for plasma separation and the plasma supernatants were transferred into 0.5 ml Eppendorf™ tubes by pipette and stored at −80° C. for the analysis of insulin levels.

[3] = tested on: NUGC-4; test: MTT Cell Proliferation Assay, NUGC-4; assay type: cell-based, human; settings: 120 hours of exposure
Excerpt: as §1, §2

[4] = tested on: PC-3; test: MTT Cell Proliferation Assay, PC-3; assay type: cell-based, human; settings: 120 hours of exposure
Excerpt: as §1, §2

[5] = tested on: HT-29; test: MTT Cell Proliferation Assay, HT-29; assay type: cell-based, human; settings: 120 hours of exposure
Excerpt: as §1, §2

[6] = tested on: MV-4-11; test: MTT Cell Proliferation Assay, MV-4-11; assay type: cell-based, human; settings: 120 hours of exposure
Excerpt: as §1, §2

B1: 5F12G1: murine monoclonal anti-BKB2R antibody (IgG2b,κ), VH comprising SEQ ID NO:1, VL comprising SEQ ID NO:2 (antibody, listed as Mus musculus, V domains shown)
VH: EVKLEESGGGLVQPGGSMKLSCVVSGFTFSDYWMSWVRHSPEMGLEWVAEIRLKSDNYATHYAESVKGRFTISRDDSKSRLYLQINSLRGEDTGIYYCTRDYYAMEYWGQGTSVTVSS
VL: DVVMTQTPLSLPVSLGDQASISCRSSQTIVHSNGKTYLEWYLQKPGQSPKLLIYKVSNRFSGVPDRFSGSGSGTEFTLKISRVETEDLGVYYCFQASHVPYTFGGGTKLEIK
[1]
  EC 50 Values (ng/ml) Hep G2: 21000 ng/mL
[2]; 0.008 mg/kg s.c. every 3 days
  blood glucose level at the start of the OGTT: 190 ± 40 mg/dL
  fasting insulin level: 14 ± 3 ng/mL
  insulin level at 15 minutes of the OGTT: 24 ± 6 ng/mL
[2]; 0.04 mg/kg s.c. every 3 days
  blood glucose level at 30 minutes of the OGTT (peak): 355 mg/dL
  blood glucose level at the start of the OGTT: 163 ± 40 mg/dL
  fasting insulin level: 12 ± 3 ng/mL
  insulin level at 15 minutes of the OGTT: 26 ± 3 ng/mL
[2]; 0.2 mg/kg s.c. every 3 days
  AUC of blood glucose during OGTT: 33241.13 ± 3910.62 mg/dL (min)
  blood glucose level at 30 minutes of the OGTT (peak): 312 mg/dL
  blood glucose level at the start of the OGTT: 150 ± 20 mg/dL
  fasting insulin level: 17 ± 5 ng/mL
  insulin level at 15 minutes of the OGTT: 30 ± 7 ng/mL
[2]; 0.008 s.c. every 3 days
  blood glucose level at 30 minutes of the OGTT (peak): 400 mg/dL
[3]
  EC 50 Values (ng/ml) NUGC-4: 47000 ng/mL
[4]
  EC 50 Values (ng/ml) PC-3: 4200 ng/mL
[5]
  EC 50 Values (ng/ml) HT-29: 16000 ng/mL
[6]
  EC 50 Values (ng/ml) MV-4-11: 35000 ng/mL

From US20140017242A1, “ANTI-BRADYKININ B2 RECEPTOR (BKB2R) MONOCLONAL ANTIBODY” (Diamedica, Inc., priority 2010, published 2014)
